B1: Proto-oncogene tyrosine-protein kinase LCK (Mus musculus), P06240 (parent)
chain: MGCVCSSNPEDDWMENIDVCENCHYPIVPLDSKISLPIRNGSEVRDPLVTYEGSLPPASPLQDNLVIALHSYEPSHDGDLGFEKGEQLRILEQSGEWWKAQSLTTGQEGFIPFNFVAKANSLEPEPWFFKNLSRKDAERQLLAPGNTHGSFLIRESESTAGSFSLSVRDFDQNQGEVVKHYKIRNLDNGGFYISPRITFPGLHDLVRHYTNASDGLCTKLSRPCQTQKPQKPWWEDEWEVPRETLKLVERLGAGQFGEVWMGYYNGHTKVAVKSLKQGSMSPDAFLAEANLMKQLQHPRLVRLYAVVTQEPIYIITEYMENGSLVDFLKTPSGIKLNVNKLLDMAAQIAEGMAFIEEQNYIHRDLRAANILVSDTLSCKIADFGLARLIEDNEYTAREGAKFPIKWTAPEAINYGTFTIKSDVWSFGILLTEIVTHGRIPYPGMTNPEVIQNLERGYRMVRPDNCPEELYHLMMLCWKERPEDRPTFDYLRSVLDDFFTATEGQYQPQP

In the first experiment the parent is B1. The following applies: with cd4_mouse Cd4, P06332.
Sequence of cd4_mouse Cd4, P06332 (P06332 whole entry): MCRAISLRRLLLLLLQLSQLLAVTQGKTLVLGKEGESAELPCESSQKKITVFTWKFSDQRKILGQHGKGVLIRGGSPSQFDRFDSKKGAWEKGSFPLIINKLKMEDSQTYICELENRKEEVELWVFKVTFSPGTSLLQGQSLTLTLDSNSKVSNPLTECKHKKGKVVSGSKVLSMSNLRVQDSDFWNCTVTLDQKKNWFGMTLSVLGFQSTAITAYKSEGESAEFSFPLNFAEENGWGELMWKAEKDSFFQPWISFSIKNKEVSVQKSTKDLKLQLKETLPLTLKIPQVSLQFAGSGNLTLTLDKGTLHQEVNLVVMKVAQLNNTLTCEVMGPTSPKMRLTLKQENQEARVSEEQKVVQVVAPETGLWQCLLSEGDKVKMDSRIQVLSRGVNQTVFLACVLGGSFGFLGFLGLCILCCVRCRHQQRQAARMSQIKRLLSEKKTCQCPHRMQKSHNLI
With C20A;C23A, the “effect of a mutation on the interaction” value is reported as “disrupting interaction strength”.

In another experiment the parent is B1. The note with it: with cd8a_mouse Cd8a.
For C20A;C23A, the “effect of a mutation on the interaction” value is recorded as “disrupting interaction strength”.

The record behind these values is IntAct's records for PubMed 24034254.
